B1: ZBTB22 (parent)
chain: FSSSSQEAFAASAVGSGERRGGGP
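Note: lentivirally expressed fusions sorted by FACS into six bins by GFP to DsRed ratio, PSI derived from sequencing read proportions per bin multiplied by bin number.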

Variants of B1 are the subject of the data set. Description: protein stability index of a GFP-peptide fusion (GPS, HEK-293T) (PSI 1-6); higher = more stable. The following applies: c terminus: a fixed tail appended.
On to FSSSSQEAFAASAVCSGERRGGGP, for which the protein stability index worked out at 2.94. To FSSSSQEAFAASAVYSGERRGGGP belongs 2.58; to FSSSSQEAFAASAVASGERRGGGP, 3.09; to FSSSSQEAFAASAVDSGERRGGGP, 4.16. Consider FSSSSQEAFAASAVNSGERRGGGP, for which the protein stability index was determined as 3.43.

With FSSSSQEAFAASAVHSGERRGGGP, the protein stability index was 3.24. The figure for FSSSSQEAFAASAVTSGERRGGGP is 3.12; for FSSSSQEAFAASAVKSGERRGGGP it is 3.41; for FSSSSQEAFAASAVESGERRGGGP it is 3.85.

As to FSSSSQEAFAASAVVSGERRGGGP, the protein stability index stood at 2.53.

For the variant FSSSSQEAFAASAVWSGERRGGGP, the protein stability index was found to be 2.72.

With FSSSSQEAFAASAVMSGERRGGGP, the protein stability index came to 3.25. Consider FSSSSQEAFAASAVQSGERRGGGP, for which the protein stability index amounted to 3.26.

For the variant FSSSSQEAFAASAVPSGERRGGGP, the protein stability index stood at 3.58. To FSSSSQEAFAASAVFSGERRGGGP belongs 2.02; to FSSSSQEAFAASAVLSGERRGGGP, 3.89. Consider FSSSSQEAFAASAVRSGERRGGGP, for which the protein stability index worked out at 2.78. As for FSSSSQEAFAASAVSSGERRGGGP, the protein stability index stood at 3.61.

In the case of FSSSSQEAFAASAVISGERRGGGP, the protein stability index came to 3.3. Take FSSSSQEAFAAYAVGSGERRGGGP: the protein stability index worked out at 1.85.

Take FSSSSQEAFAARAVGSGERRGGGP: the protein stability index stood at 2.61. For the variant FSSSSQEAFAATAVGSGERRGGGP, the protein stability index was found to be 3.02. The figure for FSSSSQEAFAAMAVGSGERRGGGP is 2.63. Take FSSSSQEAFAAVAVGSGERRGGGP: the protein stability index stood at 2.87.

Regarding FSSSSQEAFAAQAVGSGERRGGGP, the protein stability index came out at 3.71. In the case of FSSSSQEAFAANAVGSGERRGGGP, the protein stability index worked out at 3.26. The figure for FSSSSQEAFAAPAVGSGERRGGGP is 3.36. The figure for FSSSSQEAFAASAVGSDERRGGGP is 3.88. The figure for FSSSSQEAFAASAVGSLERRGGGP is 3.12. As for FSSSSQEAFAASAVGSHERRGGGP, the protein stability index was 3.62.

Take FSSSSQEAFAASAVGSNERRGGGP: the protein stability index stood at 3.28.

For FSSSSQEAFAASAVGSAERRGGGP, the protein stability index is 3.02. The figure for FSSSSQEAFAASAVGSIERRGGGP is 2.74. FSSSSQEAFAASAVGSFERRGGGP: the protein stability index is 3.18.

As for FSSSSQEAFAASAVGSEERRGGGP, the protein stability index turned out to be 3.52.

In the case of FSSSSQEAFAASAVGSMERRGGGP, the protein stability index stood at 3.35.

On to FSSSSQEAFAASAVGSKERRGGGP, for which the protein stability index is 2.63. As for FSSSSQEAFAASAVGSCERRGGGP, the protein stability index turned out to be 4.17.

For FSSSSQEAFAASIVGSGERRGGGP, the protein stability index amounted to 3.04.

As for FSSSSQEAFAASHVGSGERRGGGP, the protein stability index stood at 3.17. The figure for FSSSSQEAFAASWVGSGERRGGGP is 3.02.

Take FSSSSQEAFAASNVGSGERRGGGP: the protein stability index came to 2.57.

For the variant FSSSSQEAFAASMVGSGERRGGGP, the protein stability index was 2.79. As to FSSSSQEAFAASTVGSGERRGGGP, the protein stability index amounted to 2.71. Take FSSSSQEAFAASLVGSGERRGGGP: the protein stability index came out at 3.13. The figure for FSSSSQEAFAASVVGSGERRGGGP is 3.87; for FSSSSQEAFAASCVGSGERRGGGP it is 2.25; for FSSSSQEAFAASFVGSGERRGGGP it is 2.64. For the variant FSSSSQEAFAASSVGSGERRGGGP, the protein stability index is 3.31. The figure for FSSSSQEAFAASYVGSGERRGGGP is 3.26; for FSSSSQEAFAASEVGSGERRGGGP it is 3.93. On to FSSSSQEAFAASPVGSGERRGGGP, for which the protein stability index was determined as 3.43.

Turning to FSSSSQEAFAASDVGSGERRGGGP, the protein stability index is 3.9. The figure for FSSSSQEAFAASQVGSGERRGGGP is 3.28; for FSSSSQEAFAASRVGSGERRGGGP it is 3.78; for FSSSSQEAFAASGVGSGERRGGGP it is 3.01. Regarding FSSSSQEAFAASKVGSGERRGGGP, the protein stability index was determined as 3.36.

FSSSSQEAFAASASGSGERRGGGP: the protein stability index was 3.25. To FSSSSQEAFAASANGSGERRGGGP belongs 3.33; to FSSSSQEAFAASAPGSGERRGGGP, 3.9. FSSSSQEAFAASARGSGERRGGGP: the protein stability index is 3.65.

For the variant FSSSSQEAFAASADGSGERRGGGP, the protein stability index is 4.5. Take FSSSSQEAFAASAHGSGERRGGGP: the protein stability index came to 3.86. The figure for FSSSSQEAFAASAAGSGERRGGGP is 3.76; for FSSSSQEAFAASAWGSGERRGGGP it is 1.32. The figure for FSSSSQEAFAASAQGSGERRGGGP is 3.52; for FSSSSQEAFAASATGSGERRGGGP it is 3.27; for FSSSSQEAFAASAYGSGERRGGGP it is 2.76.

Consider FSSSSQEAFAASALGSGERRGGGP, for which the protein stability index stood at 3.77. Take FSSSSQEAFAASAIGSGERRGGGP: the protein stability index was 2.55. To FSSSSQEAFAASAKGSGERRGGGP belongs 3.33; to FSSSSQEAFAASAMGSGERRGGGP, 3.25; to FSSSSQEAFAASAGGSGERRGGGP, 3.56. The figure for FSSSSQEAFAASAFGSGERRGGGP is 2.99; for FSSSSQEAFAASAEGSGERRGGGP it is 3.85.

As for FSSSSQEAFAASACGSGERRGGGP, the protein stability index amounted to 3.36.

For the variant FSSSSQEAFAASAVGNGERRGGGP, the protein stability index amounted to 3.38. The figure for FSSSSQEAFAASAVGEGERRGGGP is 4.25; for FSSSSQEAFAASAVGAGERRGGGP it is 3.29. With FSSSSQEAFAASAVGKGERRGGGP, the protein stability index was 3.34. FSSSSQEAFAASAVGGGERRGGGP: the protein stability index was found to be 3.18. To FSSSSQEAFAASAVGRGERRGGGP belongs 3.35. In the case of FSSSSQEAFAASAVGDGERRGGGP, the protein stability index came out at 3.63. The figure for FSSSSQEAFAASAVGYGERRGGGP is 2.96; for FSSSSQEAFAASAVGVGERRGGGP it is 3.52. With FSSSSQEAFAASAVGQGERRGGGP, the protein stability index is 2.96. With FSSSSQEAFAASAVGIGERRGGGP, the protein stability index came to 3.06. FSSSSQEAFAASAVGMGERRGGGP: the protein stability index worked out at 3.37.

On to FSSSSQEAFAASAVGLGERRGGGP, for which the protein stability index stood at 2.75. The figure for FSSSSQEAFAASAVGPGERRGGGP is 3.4; for FSSSSQEAFAASAVGFGERRGGGP it is 2.4; for FSSSSQEAFAASAVGTGERRGGGP it is 3.61. To FSSSSQEAFAASAVGWGERRGGGP belongs 2.17.

For FSSSSQEAFAASAVGHGERRGGGP, the protein stability index came to 3.27.

The record behind these values is the supplement of paper PMC10567573.
